According to patent JP2018038398A (dated 2018):
Blank lines part the entries; values can stand above or below the binder they belong to.

Key:
[1] = target: T1, ヒトTFPI(American Diagnostica) (human, UniProt P10646 29-304, limits assumed); experiment: ELISA screen of Fab lysates on coated human TFPI
T1 construct: Coated on plates (ELISA) or coupled to a CM5 chip (Biacore); also called human TFPI; hTFPI
T1 sequence (looked up): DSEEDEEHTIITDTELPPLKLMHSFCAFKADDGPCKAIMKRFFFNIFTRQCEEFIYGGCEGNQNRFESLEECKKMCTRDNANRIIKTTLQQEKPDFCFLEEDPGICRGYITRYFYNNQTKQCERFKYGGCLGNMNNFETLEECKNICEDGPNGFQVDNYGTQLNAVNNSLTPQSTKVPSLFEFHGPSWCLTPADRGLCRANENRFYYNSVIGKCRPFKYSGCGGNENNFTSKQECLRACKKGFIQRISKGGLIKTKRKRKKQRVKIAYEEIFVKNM

[2] = target: T1, ヒトTFPI(American Diagnostica); experiment: ELISA on coated human TFPI
[3] = target: T2, マウスTFPI(R&D System) (mouse, UniProt O54819 29-289, limits assumed); experiment: ELISA on coated mouse TFPI
T2 construct: also called mouse TFPI; mTFPI
T2 sequence (looked up): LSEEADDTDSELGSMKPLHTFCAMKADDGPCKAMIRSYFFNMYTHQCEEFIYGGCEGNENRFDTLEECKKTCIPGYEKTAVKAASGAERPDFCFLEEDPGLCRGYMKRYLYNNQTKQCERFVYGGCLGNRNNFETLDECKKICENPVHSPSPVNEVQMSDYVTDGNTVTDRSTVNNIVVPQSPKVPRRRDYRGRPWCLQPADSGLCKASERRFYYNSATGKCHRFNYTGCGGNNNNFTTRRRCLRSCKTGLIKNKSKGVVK

[4] = target: T1, ヒトTFPI(American Diagnostica); experiment: ELISA on coated human TFPI, IgG against Fab
[5] = target: T2, マウスTFPI(R&D System); experiment: ELISA on coated mouse TFPI, IgG against Fab

binding result [1]: binds
B2: TP-4B7 (Fab, V domains shown)
VH: QVQLQQSGPGLVKPSQTLSLTCAISGDSVSSNSAAWSWIRQSPGRGLEWLGIIYKRSKWYNDYAVSVKSRITINPDTSKNQFSLQLNSVTPEDTAVYYCARWHSDKHWGFDYWGQGTLVTVSS
VL: DIVMTQSPLSLPVTPGEPASISCRSSQSLVFSDGNTYLNWYLQKPGQSPQLLIYKGSNRASGVPDRFSGSGSGTDFTLKISRVEAEDVGVYYCQQYDSYPLTFGQGTKVEIKR
notes: Human Fab from HuCAL Gold

fold change of EC50 against 2G6-Fab [4]: 2 fold
EC50 [2]: 0.22 nM
EC50 [3]: 0.51 nM
fold change of EC50 against 2G6-Fab [5]: 10 fold
B4: 2G6−IgG (antibody, V domains shown)
VH: QVQLQQSGPGLVKPSQTLSLTCAISGDSVSSSSAAWSWIRQSPGRGLEWLGIIYYRSKWYNDYAVSVKSRITINPDTSKNQFSLQLNSVTPEDTAVYYCARHSMVGFDVWGQGTLVTVSS
VL: DIVLTQSPATLSLSPGERATLSCRASQYVTSSYLAWYQQKPGQAPRLLIYGSSRATGVPARFSGSGSGTDFTLTISSLEPEDFATYYCQQYSSSPITFGQGTKVEIKR
notes: also called IgG-2G6; 2G6-IgG

Second part, the binder before the results:

B1: TP-2A8 (Fab, V domains shown)
VH: QVQLVESGGGLVQPGGSLRLSCAASGFTFRSYGMSWVRQAPGKGLEWVSSIRGSSSSTYYADSVKGRFTISRDNSKNTLYLQMNSLRAEDTAVYYCARKYRYWFDYWGQGTLVTVSS
VL: DIELTQPPSVSVAPGQTARISCSGDNLRNYYAHWYQQKPGQAPVVVIYYDNNRPSGIPERFSGSNSGNTATLTISGTQAEDEADYYCQSWDDGVPVFGGGTKLTVLG
notes: Human Fab from HuCAL Gold; also called Fab-2A8; TP-2A8-Fab
binding result [1]: binds

B3: TP-2G6 (Fab, V domains shown)
VH: B4 VH
VL: B4 VL
notes: Human Fab from HuCAL Gold, purified over Ni-NTA; also called 2G6-Fab
EC50 [2]: 0.48 nM
EC50 [3]: 5.18 nM
